Test results from patent publication US20150218594A1, “CELL-FREE AND MINIMIZED METABOLIC REACTION CASCADES FOR THE PRODUCTION OF CHEMICALS” (CLARIANT PRODUKTE (DEUTSCHLAND) GMBH, priority 2012, published 2015).

Legend:
Format in all cases: biochemical
[1] = Activity in solvents of Ta-ALDH variants (3 % isobutanol); conditions: for 3 % isobutanol, 2 mM NAD (mU/mL): 50° C., pH 7; for 3 % isobutanol, 2 mM NAD (mU/mL) / relative to wt: 3 % isobutanol, 2 mM NAD; for relative to wt: normalized to the wildtype control value; for Stab. rel to wt: stability in 3 % isobutanol relative to wildtype
Experimental: (§1) Colonies of E. coli BL21 (DE3) containing Ta-ALDH library were transferred into 96-deepwell plates (Gainer BioOne) containing Zym5052 autoinduction medium (Protein Expression and Purification, 2005. 41(1): p. 207-234). Cultures were grown over night at 37° C., 1000 rpm. Cells were harvested by centrifugation at 5000 g at 2° C. for 2 min and lysed with B-Per® protein extraction reagent (Thermo Fisher Scentific, Rockford, USA). After incubation for 60 min at 50° C., insoluble cell debris and was removed by centrifugation at 5000 g at 20° C. for 30 min. Supernatants containing variants of TaALDH were tested for relative activity under standard conditions: 2 mM NAD, 1 mM D-glyceraldehyde in 50 mM HEPES (pH 7) at 50° C. After 20 min NADH formation was detected spectrophotometrically at 340 nm.
Activity in solvents of Ta-ALDH variants was tested under standard assay conditions containing additional solvent. After 20 min NADH formation was detected and compared to relative activity.
(§2) The values “relative to wt” are the mU/mL values normalized to the wildtype control value.

[2] = Screening of TaALDH variants, relative activity under standard conditions (2 mM NAD); conditions: for 2 mM NAD (mU/mL): 1 mM D-glyceraldehyde, 50° C., pH 7, lysate supernatant; for relative to wt: mU/mL values normalized to the wildtype control value
Experimental: as §1, §2

[3] = Cofactor acceptance of Ta-ALDH variants (10 mM NAD); conditions: for 10 mM NAD (mU/mL): 1 mM D-glyceraldehyde, 50° C., pH 7; for 10 mM NAD (mU/mL) / relative to wt: 10 mM NAD; for relative to wt: normalized to the wildtype control value; for 10 mM NAD /2 mM NAD: ratio of activity at 10 mM NAD to 2 mM NAD
Experimental: as §1
Change in cofactor acceptance of Ta-ALDH variants was tested under standard assay conditions but with 10 mM NAD. After 20 min NADH formation was detected and compared to relative activity.
as §2

Molecule | 3 % isobutanol, 2 mM NAD (mU/mL) [1] | relative to wt [1] | Stab. rel to wt [1] | 2 mM NAD (mU/mL) [2] | relative to wt [2] | 10 mM NAD (mU/mL) [3] | relative to wt [3] | 10 mM NAD /2 mM NAD [3]
S405C: optimized Thermoplasma acidophilum aldehyde dehydrogenase with the mutation of S405C (protein, TaALDH-S405C-Chis) MDTKLYIDGQWVNSSSGKTVDKYSPVTGQVIGRFEAATRDDVDRAIDAAEDAFWAWNDLGSVERSKIIYRAKELIEKNRAELENIIMEENGKPVKEAKEEVDGVIDQIQYYAEWARKLNGEVVEGTSSHRKIFQYKVPYGIVVALTPWNFPAGMVARKLAPALLTGNTVVLKPSSDTPGSAEWIVRKFVEAGVPKGVLNFITGRGSEIGDYIVEHKKVNLITMTGSTATGQRIMQKASANMAKLILELGGKAPFMVWKDADMDNALKTLLWAKYWNAGQSCIAAERLYVHEDIYDTFMSRFVELSRKLALGDPKNADMGPLINKGALQATSEIVEEAKESGAKILFGGSQPSLSGPYRNGYFFLPTIIGNADQKSKIFQEEIFAPVIGARKISSVEEMYDLANDCKYGLASYLFTKDPNIIFEASERIRFGELYVNMPGPEASQGYHTGFRMTGQAGEGSKYGISEYLKLKNIYVDYSGKPLHINTVRDDLFQSGRPVLGSSHHHHHH | 12.65 mU/mL | 7.9 | 1.2 | 19.29 mU/mL | 6.7 | 66.82 mU/mL | 5.6 | 0.8
F34M W271S S405N: TaALDH variant with the mutations F34M, W271S and S405N; no SEQ ID printed (protein) MDTKLYIDGQWVNSSSGKTVDKYSPVTGQVIGRMEAATRDDVDRAIDAAEDAFWAWNDLGSVERSKIIYRAKELIEKNRAELENIIMEENGKPVKEAKEEVDGVIDQIQYYAEWARKLNGEVVEGTSSHRKIFQYKVPYGIVVALTPWNFPAGMVARKLAPALLTGNTVVLKPSSDTPGSAEWIVRKFVEAGVPKGVLNFITGRGSEIGDYIVEHKKVNLITMTGSTATGQRIMQKASANMAKLILELGGKAPFMVWKDADMDNALKTLLSAKYWNAGQSCIAAERLYVHEDIYDTFMSRFVELSRKLALGDPKNADMGPLINKGALQATSEIVEEAKESGAKILFGGSQPSLSGPYRNGYFFLPTIIGNADQKSKIFQEEIFAPVIGARKISSVEEMYDLANDNKYGLASYLFTKDPNIIFEASERIRFGELYVNMPGPEASQGYHTGFRMTGQAGEGSKYGISEYLKLKNIYVDYSGKPLHINTVRDDLFQSGRPVLGSSHHHHHH | 43.86 mU/mL | 27.5 | 0.6 | 125.38 mU/mL | 43.4 | 279.58 mU/mL | 23.5 | 0.5
F34M W271S Y399C S405N: optimized Thermoplasma acidophilum aldehyde dehydrogenase with the mutations F34M, W271S, Y399C and S405N (protein, TaALDH-F34M-W271S-Y399C-S405N-Chis) MDTKLYIDGQWVNSSSGKTVDKYSPVTGQVIGRMEAATRDDVDRAIDAAEDAFWAWNDLGSVERSKIIYRAKELIEKNRAELENIIMEENGKPVKEAKEEVDGVIDQIQYYAEWARKLNGEVVEGTSSHRKIFQYKVPYGIVVALTPWNFPAGMVARKLAPALLTGNTVVLKPSSDTPGSAEWIVRKFVEAGVPKGVLNFITGRGSEIGDYIVEHKKVNLITMTGSTATGQRIMQKASANMAKLILELGGKAPFMVWKDADMDNALKTLLSAKYWNAGQSCIAAERLYVHEDIYDTFMSRFVELSRKLALGDPKNADMGPLINKGALQATSEIVEEAKESGAKILFGGSQPSLSGPYRNGYFFLPTIIGNADQKSKIFQEEIFAPVIGARKISSVEEMCDLANDNKYGLASYLFTKDPNIIFEASERIRFGELYVNMPGPEASQGYHTGFRMTGQAGEGSKYGISEYLKLKNIYVDYSGKPLHINTVRDDLFQSGRPVLGSSHHHHHH | 1.3 mU/mL | 0.8 | 0.8 | 3 mU/mL | 1.0 | 8.08 mU/mL | 0.7 | 0.7
Y399R: optimized Thermoplasma acidophilum aldehyde dehydrogenase with the mutation of Y399R (protein, TaALDH-Y399R-Chis) MDTKLYIDGQWVNSSSGKTVDKYSPVTGQVIGRFEAATRDDVDRAIDAAEDAFWAWNDLGSVERSKIIYRAKELIEKNRAELENIIMEENGKPVKEAKEEVDGVIDQIQYYAEWARKLNGEVVEGTSSHRKIFQYKVPYGIVVALTPWNFPAGMVARKLAPALLTGNTVVLKPSSDTPGSAEWIVRKFVEAGVPKGVLNFITGRGSEIGDYIVEHKKVNLITMTGSTATGQRIMQKASANMAKLILELGGKAPFMVWKDADMDNALKTLLWAKYWNAGQSCIAAERLYVHEDIYDTFMSRFVELSRKLALGDPKNADMGPLINKGALQATSEIVEEAKESGAKILFGGSQPSLSGPYRNGYFFLPTIIGNADQKSKIFQEEIFAPVIGARKISSVEEMRDLANDSKYGLASYLFTKDPNIIFEASERIRFGELYVNMPGPEASQGYHTGFRMTGQAGEGSKYGISEYLKLKNIYVDYSGKPLHINTVRDDLFQSGRPVLGSSHHHHHH | 2.16 mU/mL | 1.4 | 1 | 3.76 mU/mL | 1.3 | 11.56 mU/mL | 1.0 | 0.7
W271S: optimized Thermoplasma acidophilum aldehyde dehydrogenase with the mutation of W271S (protein, TaALDH-W271S-Chis) MDTKLYIDGQWVNSSSGKTVDKYSPVTGQVIGRFEAATRDDVDRAIDAAEDAFWAWNDLGSVERSKIIYRAKELIEKNRAELENIIMEENGKPVKEAKEEVDGVIDQIQYYAEWARKLNGEVVEGTSSHRKIFQYKVPYGIVVALTPWNFPAGMVARKLAPALLTGNTVVLKPSSDTPGSAEWIVRKFVEAGVPKGVLNFITGRGSEIGDYIVEHKKVNLITMTGSTATGQRIMQKASANMAKLILELGGKAPFMVWKDADMDNALKTLLSAKYWNAGQSCIAAERLYVHEDIYDTFMSRFVELSRKLALGDPKNADMGPLINKGALQATSEIVEEAKESGAKILFGGSQPSLSGPYRNGYFFLPTIIGNADQKSKIFQEEIFAPVIGARKISSVEEMYDLANDSKYGLASYLFTKDPNIIFEASERIRFGELYVNMPGPEASQGYHTGFRMTGQAGEGSKYGISEYLKLKNIYVDYSGKPLHINTVRDDLFQSGRPVLGSSHHHHHH | 20.8 mU/mL | 13 | 0.6 | 58.35 mU/mL | 20.2 | 181.89 mU/mL | 15.3 | 0.8
